Measurements from publication PMC8546688.

Biological target: His-tagged FtsZ (filamentous temperature-sensitive protein Z) (Streptococcus suis)
Assay: SPR; His-tagged FtsZ immobilized onto sensor chips as the ligand; MsmK constructs in concentration series as analytes; buffer without protein as negative control

Row | Substance | Kd | koff | kon
1 | A_MsmK, MsmK with the Walker A motif deleted, His-tagged (from UniProt A0A0H3N1P0 1-376) (enzyme) | 0.406 nM | 0.000102 s⁻¹ | 251000 M⁻¹ s⁻¹
2 | B_MsmK, MsmK with the Walker B motif deleted, His-tagged (from UniProt A0A0H3N1P0 1-376) (enzyme) | 0.309 nM | 0.000132 s⁻¹ | 427000 M⁻¹ s⁻¹
